The target of assay [1] is recombinant ADAM12 (A Disintegrin and Metalloproteinase 12), activated by furin (UniProt O43184).
Assay [2] shares this target. Put plainly: enzyme inhibition assay (fluorogenic FRET-peptide protease activity); 6-point dilution of PA12 incubated with 5 nM recombinant ADAM12 for 10 min before the substrate; 15 uM Dabcyl-LAQAhomopheRSK(FAM)-NH2, 25 mM Tris pH 8, 10^-3% Brij-35, 10 mM CaCl2, 15 uM furin inhibitor 1, RT; Ki inferred from dose-response curves.

Sequence of recombinant ADAM12 (A Disintegrin and Metalloproteinase 12), activated by furin (O43184 whole entry): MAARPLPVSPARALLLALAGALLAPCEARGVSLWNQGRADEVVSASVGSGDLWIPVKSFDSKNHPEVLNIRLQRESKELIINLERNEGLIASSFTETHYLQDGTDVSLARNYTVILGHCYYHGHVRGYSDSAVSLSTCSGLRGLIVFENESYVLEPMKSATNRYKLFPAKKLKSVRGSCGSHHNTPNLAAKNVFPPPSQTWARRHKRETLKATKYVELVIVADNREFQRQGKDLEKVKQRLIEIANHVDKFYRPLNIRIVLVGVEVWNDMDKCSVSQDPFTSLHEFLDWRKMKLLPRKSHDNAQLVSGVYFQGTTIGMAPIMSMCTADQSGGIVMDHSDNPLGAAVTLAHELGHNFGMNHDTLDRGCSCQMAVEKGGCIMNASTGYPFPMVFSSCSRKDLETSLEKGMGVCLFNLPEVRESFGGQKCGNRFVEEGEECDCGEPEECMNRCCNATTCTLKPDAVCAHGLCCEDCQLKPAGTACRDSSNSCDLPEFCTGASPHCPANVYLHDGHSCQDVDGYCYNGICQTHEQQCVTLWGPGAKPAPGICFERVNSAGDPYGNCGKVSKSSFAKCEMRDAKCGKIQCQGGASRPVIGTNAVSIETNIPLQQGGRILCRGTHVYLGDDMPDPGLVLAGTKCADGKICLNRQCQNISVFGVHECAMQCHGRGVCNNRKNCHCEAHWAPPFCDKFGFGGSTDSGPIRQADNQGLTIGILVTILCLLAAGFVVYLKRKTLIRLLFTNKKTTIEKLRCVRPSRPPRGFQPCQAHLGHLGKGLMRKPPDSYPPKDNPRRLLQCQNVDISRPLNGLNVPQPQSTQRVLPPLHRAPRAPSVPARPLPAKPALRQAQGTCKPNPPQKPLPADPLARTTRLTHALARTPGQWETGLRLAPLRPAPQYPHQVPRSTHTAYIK

B1: recombinant His-tagged human ADAM12 prodomain (amino acids 29-206) (domain or fragment)
chain: RGVSLWNQGRADEVVSASVGSGDLWIPVKSFDSKNHPEVLNIRLQRESKELIINLERNEGLIASSFTETHYLQDGTDVSLARNYTVILGHCYYHGHVRGYSDSAVSLSTCSGLRGLIVFENESYVLEPMKSATNRYKLFPAKKLKSVRGSCGSHHNTPNLAAKNVFPPPSQTWARRHK
Broadly, the Ki is a measure of affinity in units of concentration, obtained from inhibition or displacement. Turning to B1, in assay [1], the relative level of intact transmembrane HB-EGF on 12Z-HE cells (live-cell Myc immunostaining, flow cytometry) after 2 uM PA12 for 3 h was found to be 20%. Moreover, the inhibition constant (Ki) in assay [2] worked out at 430 nM.
